Measured values reported in patent US20060141532A1.

Target: HLA-A2 Ag on A375SM melanoma cells (human)
Assay: cell-based or functional assay

anti-HLA-A2 mAb MA2.1 (antibody)
inhibition of lysis of A375SM melanoma cells by I-100-CTL and I-102-CTL (51Cr release assay): > 50%
